According to publication PMC11289882 (2024):

Legend:
[1] = molecular target: T1, CITED2 variant 4 218-256 (Homo sapiens, UniProt Q99967, beta3-amino acid replacements in C-terminus); assay: ITC
T1 chain: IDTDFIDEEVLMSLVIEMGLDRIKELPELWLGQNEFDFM

[2] = molecular target: T2, CITED2 variant 2 218-256 (Homo sapiens, UniProt Q99967, beta3-amino acid replacements in αA helix); assay: ITC
T2 chain: T1 chain

[3] = molecular target: T3, CITED2 variant 3a 218-256 (Homo sapiens, UniProt Q99967, beta3-amino acid replacements in loop (LPEL motif)); assay: ITC
T3 chain: T1 chain

[4] = molecular target: T4, CITED2 variant 3c 218-256 (Homo sapiens, UniProt Q99967, beta3-amino acid replacements in loop); assay: ITC
T4 chain: T1 chain

[5] = molecular target: T5, CITED2 variant 3b 218-256 (Homo sapiens, UniProt Q99967, beta3-amino acid replacements in loop); assay: ITC
T5 chain: T1 chain

[6] = molecular target: T6, CITED2 variant 1 218-256 (Homo sapiens, UniProt Q99967, beta3-amino acid replacements in N-terminal tail); assay: ITC
T6 chain: T1 chain

[7] = molecular target: T7, HIF-1α 776-826 (Homo sapiens, UniProt Q16665); assay: anisotropy
T7 chain: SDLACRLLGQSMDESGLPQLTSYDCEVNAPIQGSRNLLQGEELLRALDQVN

Kd [1]: 17 nM | Kd [2]: 16 nM | Kd [3]: 675 nM | Kd [4]: 29 nM | Kd [5]: 98 nM | Kd [6]: 19 nM | Kd [7]: 57 nM
B1: p300 TAZ1 330-420 (protein)
chain: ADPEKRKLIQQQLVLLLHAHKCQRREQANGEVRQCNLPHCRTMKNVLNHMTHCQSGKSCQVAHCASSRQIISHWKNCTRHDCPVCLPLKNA
